These results are taken from publication PMC2756985 (Biochemistry, 2009).

The nature of this assay: Oxygen dissociation rates of DevS proteins, stopped flow. The class given is binding, Mycobacterium tuberculosis.

B1: DevS: full length wild-type heme sensor kinase DevS of Mycobacterium tuberculosis (protein, UniProt P9WGK3 1-578, looked up)
chain: MTTGGLVDENDGAAMRPLRHTLSQLRLHELLVEVQDRVEQIVEGRDRLDGLVEAMLVVTAGLDLEATLRAIVHSATSLVDARYGAMEVHDRQHRVLHFVYEGIDEETVRRIGHLPKGLGVIGLLIEDPKPLRLDDVSAHPASIGFPPYHPPMRTFLGVPVRVRDESFGTLYLTDKTNGQPFSDDDEVLVQALAAAAGIAVANARLYQQAKARQSWIEATRDIATELLSGTEPATVFRLVAAEALKLTAADAALVAVPVDEDMPAADVGELLVIETVGSAVASIVGRTIPVAGAVLREVFVNGIPRRVDRVDLEGLDELADAGPALLLPLRARGTVAGVVVVLSQGGPGAFTDEQLEMMAAFADQAALAWQLATSQRRMRELDVLTDRDRIARDLHDHVIQRLFAIGLALQGAVPHERNPEVQQRLSDVVDDLQDVIQEIRTTIYDLHGASQGITRLRQRIDAAVAQFADSGLRTSVQFVGPLSVVDSALADQAEAVVREAVSNAVRHAKASTLTVRVKVDDDLCIEVTDNGRGLPDEFTGSGLTNLRQRAEQAGGEFTLASVPGASGTVLRWSAPLSQ
modifications: full-length
Regarding B1, the O2 koff is recorded as 6.79 ± 0.33 ^b s^−1.
